Results on 17 molecules are retold here after patent publication US20030068675, “Position dependent recognition of GNN nucleotide triplets by zinc fingers” (published 2003).

In general, Kd refers to a measure of binding affinity in units of concentration. Low values mean a tighter complex, high ones a looser complex.

Numbering of substitutions follows the chain as printed.

What all share (test): EMSA
Holding throughout (conditions): tags: MBP fusion
For orientation: Mobility shift assays separate free from complexed probe on a gel.

In data set [1] the target is ZFP SBS#962 (synthetic, UniProt P08047). The method in brief:
(§1)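 Purified ZFP was titrated against labeled double-stranded target (1 nM or lower, at least 10-fold below expected Kd) carrying the natural binding site with flanks. Binding buffer was 10 mM Tris pH 7.5, 100 mM KCl, 1 mM MgCl2, 0.1 mM ZnCl2, 5 mM DTT, 10% glycerol, 0.02% BSA, with equilibration for at least 45 min. Bound and free target were separated on a 10% polyacrylamide gel.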

The target in data set [2] is ZFP SBS#963 (synthetic). The procedure, abridged:
as §1

Data set [3] deals with ZFP SBS#976 (synthetic). The procedure, abridged:
as §1

Data set [4] deals with T1, ZFP SBS#975 (synthetic).
T1 chain: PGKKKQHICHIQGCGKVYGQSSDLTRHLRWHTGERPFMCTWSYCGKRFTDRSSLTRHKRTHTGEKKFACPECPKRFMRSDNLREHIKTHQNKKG
The method in brief: as §1

The target of data set [5] is T2, ZFP SBS#967 (synthetic).
T2 chain: T1 chain with Q20D, S21R, D23S, D50R, R51S, S52D, S53N, T55S, R83A, E84R
The method in brief: as §1

Data set [6] has as its target T3, ZFP SBS#966 (synthetic).
T3 chain: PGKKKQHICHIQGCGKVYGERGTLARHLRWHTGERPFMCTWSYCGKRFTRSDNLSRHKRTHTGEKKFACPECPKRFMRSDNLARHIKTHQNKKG
The procedure, abridged:
as §1

In data set [7] the target is T4, ZFP SBS#965 (synthetic).
T4 chain: T3 chain with T23D, A25T, N53E, S55Q, N81E, L82R, A83K
The procedure, abridged:
as §1

Data set [8] concerns the target ZFP SBS#935 (synthetic). The procedure, abridged:
as §1

Data set [9] addresses ZFP SBS#911 (synthetic). The method in brief: as §1
Data set [10] has as its target T5, ZFP SBS#927 (synthetic).
T5 chain: T1 chain with Q20R, S22D, D23N, T25A, D50T, R51S, S52G
The method in brief: as §1

Data set [11] deals with T6, ZFP SBS#928 (synthetic).
T6 chain: T1 chain with Q20R, S22D, D23N, T25A, D50Q, R51S, S53A
The procedure, abridged:
as §1

The target of data set [12] is T7, ZFP SBS#933 (synthetic).
T7 chain: T3 chain with E20Q, R21S, G22A, T23N, S55A, R78D, S79R, D80S, A83T
The method in brief: as §1

In data set [13] the target is ZFP SBS#910 (synthetic). The method in brief: as §1
Data set [14] addresses ZFP SBS#934 (synthetic). The procedure, abridged: as §1
Data set [15] has as its target T8, ZFP SBS#435 (synthetic).
T8 chain: T1 chain with S22A, D23S, R51S, S52G, S53H, R78E, S79R, D80G, R83T, E84R
The method in brief: as §1

In data set [16] the target is T9, ZFP SBS#434 (synthetic).
T9 chain: T1 chain with S22A, D23S, R51S, S52G, S53H, R78E, S79K, D80A, R83T, E84R
The method in brief:
as §1

Data set [17] addresses ZFP SBS#436 (synthetic). The method in brief:
as §1

Data set [18] concerns the target ZFP SBS#437 (synthetic). The procedure, abridged:
as §1

In data set [19] the target is T10, ZFP SBS#969 (synthetic).
T10 chain: T1 chain with S22G, D23S, S53D, R83A, E84R
The procedure, abridged:
as §1

Data set [20] deals with T11, ZFP SBS#968 (synthetic).
T11 chain: T1 chain with S22G, D23S, R83A, E84R
The method in brief: as §1

The target of data set [21] is ZFP SBS#931 (synthetic). The method in brief:
as §1

Data set [22] addresses ZFP SBS#903 (synthetic). The procedure, abridged:
as §1

For data set [23], the target named is T12, ZFP SBS#932 (synthetic).
T12 chain: T3 chain with E20R, R21S, G22D, T23H, R50Q, D52S, S55V, N81A, A83R, R84Q
The procedure, abridged:
as §1

The target of data set [24] is T13, ZFP SBS#929 (synthetic).
T13 chain: T1 chain with D23N, T25A, D50Q, R51S, S52A, S53T, T55A
The procedure, abridged: as §1

The target of data set [25] is T14, ZFP SBS#973 (synthetic).
T14 chain: T3 chain with E20D, G22S, T23A, A25T, N53E, S55Q, R78E, S79R, D80G, N81T
The procedure, abridged:
as §1

The target in data set [26] is T15, ZFP SBS#974 (synthetic).
T15 chain: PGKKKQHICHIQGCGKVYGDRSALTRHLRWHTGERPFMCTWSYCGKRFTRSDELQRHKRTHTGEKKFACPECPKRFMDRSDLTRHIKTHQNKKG
The procedure, abridged:
as §1

In data set [27] the target is T16, ZFP SBS#972 (synthetic).
T16 chain: T3 chain with T23D, A25T, R50D, S51R, D52S, N53H, S55A, N81A
The procedure, abridged:
as §1

The target of data set [28] is T17, ZFP SBS#971 (synthetic).
T17 chain: T1 chain with Q20D, S21R, D23S, S53H, T55A, N81A, R83A, E84R
The procedure, abridged: as §1

The target in data set [29] is T18, ZFP SBS#970 (synthetic).
T18 chain: T3 chain with R50D, S51R, D52S, N53H, S55A, N81A
The method in brief:
as §1

Data set [30] addresses T19, ZFP SBS#978 (synthetic).
T19 chain: T1 chain with Q20R, S22D, D23S, D50Q, R51S, S52G, S53D, N81A
The method in brief:
as §1

The target in data set [31] is T20, ZFP SBS#977 (synthetic).
T20 chain: T1 chain with Q20R, S22D, D23S, D50Q, R51S, S52G, N81A
The procedure, abridged:
as §1

Data set [32] addresses T21, ZFP SBS#945 (synthetic).
T21 chain: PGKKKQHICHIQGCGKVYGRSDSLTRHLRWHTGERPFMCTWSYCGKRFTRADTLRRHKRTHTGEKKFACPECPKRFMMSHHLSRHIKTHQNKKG
The method in brief:
as §1

The target of data set [33] is ZFP SBS#947 (synthetic). The procedure, abridged:
as §1

For data set [34], the target named is ZFP SBS#948 (synthetic). The procedure, abridged: as §1
Data set [35] concerns the target T22, ZFP SBS#946 (synthetic).
T22 chain: T21 chain with A51S, T53V, R55Q
The method in brief:
as §1

Chain of ZFP SBS#436 (synthetic) (chain, as listed by the source): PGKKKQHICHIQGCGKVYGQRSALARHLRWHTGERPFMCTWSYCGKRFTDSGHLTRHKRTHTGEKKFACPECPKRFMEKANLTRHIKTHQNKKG
Chain of ZFP SBS#976 (synthetic) (chain, as listed by the source): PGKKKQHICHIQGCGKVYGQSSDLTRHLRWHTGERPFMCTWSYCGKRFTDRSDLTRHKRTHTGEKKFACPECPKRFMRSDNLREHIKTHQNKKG
Chain of ZFP SBS#911 (synthetic) (chain, as listed by the source): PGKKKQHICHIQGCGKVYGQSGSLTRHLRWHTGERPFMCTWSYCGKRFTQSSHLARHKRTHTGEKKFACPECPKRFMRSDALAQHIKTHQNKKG
Chain of ZFP SBS#903 (synthetic) (chain, as listed by the source): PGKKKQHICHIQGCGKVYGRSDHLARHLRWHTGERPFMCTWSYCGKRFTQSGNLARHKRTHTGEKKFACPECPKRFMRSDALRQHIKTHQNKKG
Chain of ZFP SBS#910 (synthetic) (chain, as listed by the source): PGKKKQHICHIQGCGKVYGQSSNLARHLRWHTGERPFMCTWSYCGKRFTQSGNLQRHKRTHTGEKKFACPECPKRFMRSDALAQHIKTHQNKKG
Chain of ZFP SBS#947 (synthetic) (chain, as listed by the source): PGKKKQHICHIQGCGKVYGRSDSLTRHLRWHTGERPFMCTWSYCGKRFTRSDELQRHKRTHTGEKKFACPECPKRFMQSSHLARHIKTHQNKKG
Chain of ZFP SBS#437 (synthetic) (chain, as listed by the source): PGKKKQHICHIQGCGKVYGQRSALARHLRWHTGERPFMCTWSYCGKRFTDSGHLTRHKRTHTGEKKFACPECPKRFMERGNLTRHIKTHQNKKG
Chain of ZFP SBS#931 (synthetic) (chain, as listed by the source): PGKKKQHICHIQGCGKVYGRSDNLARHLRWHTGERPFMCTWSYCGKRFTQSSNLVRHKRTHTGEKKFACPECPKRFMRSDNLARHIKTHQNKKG
Chain of ZFP SBS#934 (synthetic) (chain, as listed by the source): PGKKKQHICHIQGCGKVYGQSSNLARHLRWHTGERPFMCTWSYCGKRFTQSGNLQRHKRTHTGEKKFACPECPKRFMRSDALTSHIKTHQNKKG
Chain of ZFP SBS#948 (synthetic) (chain, as listed by the source): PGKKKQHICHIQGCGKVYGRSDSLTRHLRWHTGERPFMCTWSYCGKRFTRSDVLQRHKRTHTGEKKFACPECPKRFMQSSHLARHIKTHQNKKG
Chain of ZFP SBS#962 (P08047 other isoform, or with tags, fused parts or gaps): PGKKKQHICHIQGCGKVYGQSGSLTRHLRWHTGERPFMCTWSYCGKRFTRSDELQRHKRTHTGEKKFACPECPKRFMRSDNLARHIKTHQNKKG

B1: GAGGCGGCA (dsDNA)
DNA 1: GAGGCGGCA
DNA 2: TGCCGCCTC
As for B1, the Kd in data set [1] and in [2] was 0.015 nM in each case.

B2: CAGGCCGCT (dsDNA)
DNA 1: CAGGCCGCT
DNA 2: AGCGGCCTG
On to B2, for which the Kd in data set [3] is 4.12 nM; in data set [4], 1.1 nM.

B3: GAGGAGGCC (dsDNA)
DNA 1: GAGGAGGCC
DNA 2: GGCCTCCTC
Regarding B3, the dissociation constant (Kd) stood at 0.055 nM in data set [5] and 0.028 nM in data set [6].

B4: GCGGCGGCC (dsDNA)
DNA 1: GCGGCGGCC
DNA 2: GGCCGCCGC
Molecule B4 displayed a dissociation constant (Kd) in data set [7] of 3.1 nM.

B5: ATGGGTGCA (dsDNA)
DNA 1: ATGGGTGCA
DNA 2: TGCACCCAT
Regarding B5, the Kd in data set [8] and in data set [9] was 0.91 nM in each case.

B6: CAGGTTGAG (dsDNA)
DNA 1: CAGGTTGAG
DNA 2: CTCAACCTG
On to B6, for which the Kd in [10] was found to be 3.61 nM; in data set [11], 25 nM.

B7: GACGAGGAA (dsDNA)
DNA 1: GACGAGGAA
DNA 2: TTCCTCGTC
B7 showed a Kd in data set [12] of 500 nM.

B8: ATGGAAGAT (dsDNA)
DNA 1: ATGGAAGAT
DNA 2: ATCTTCCAT
For the molecule B8, the dissociation constant (Kd) was 0.03 nM in data set [13] and 0.07 nM in [14].

B9: GACGGCGTA (dsDNA)
DNA 1: GACGGCGTA
DNA 2: TACGCCGTC
B9: the Kd came out at 150 nM in data set [15], 152 nM in data set [16], 95 nM in data set [17] and 118 nM in data set [18].

B10: GAGGCCGCA (dsDNA)
DNA 1: GAGGCCGCA
DNA 2: TGCGGCCTC
On to B10, for which the equilibrium dissociation constant (Kd) in [19] was determined as 0.275 nM; in [20], 1.4 nM.

B11: GAGGAAGAG (dsDNA)
DNA 1: GAGGAAGAG
DNA 2: CTCTTCCTC
On to B11, for which the Kd in [21] amounted to 2 nM.

B12: ATGGAAGGG (dsDNA)
DNA 1: ATGGAAGGG
DNA 2: CCCTTCCAT
For the molecule B12, the Kd in [22] turned out to be 1.03 nM; in [23] it was 797 nM.

B13: CAGGTAGAT (dsDNA)
DNA 1: CAGGTAGAT
DNA 2: ATCTACCTG
In data set [24], B13 registered a Kd of 1.3 nM.

B14: GCCGCGGTC (dsDNA)
DNA 1: GCCGCGGTC
DNA 2: GACCGCGGC
As for B14, the values for the Kd in data set [25] and in [26] were 0.6 nM and 0.038 nM, respectively.

B15: GTGGGCGCC (dsDNA)
DNA 1: GTGGGCGCC
DNA 2: GGCGCCCAC
Regarding B15, the Kd was found to be 1.75 nM in data set [27], 0.144 nM in [28] and 1.86 nM in [29].

B16: CTGGCAGTG (dsDNA)
DNA 1: CTGGCAGTG
DNA 2: CACTGCCAG
Regarding B16, the dissociation constant (Kd) in data set [30] stood at 1.58 nM; in [31] it was 0.017 nM.

B17: GGTGCGGTG (dsDNA)
DNA 1: GGTGCGGTG
DNA 2: CACCGCACC
In the case of B17, the Kd in data set [32] stood at 0.027 nM; in [33], 0.013 nM; in data set [34], 0.017 nM; in [35], 0.027 nM.
